This series concerns the molecule itself. Nature of the series: SEC. In general terms: In gel filtration, larger molecules generally elute earlier.

The values below come from publication PMC3722578 (FEBS Open Bio, 2013).

B1: PKD1 domain from Vibrio cholerae metalloprotease PrtV (residues Glu755-Asn839) (domain or fragment)
chain: GAMENIAPVARFELKVEGLSVMSQNTSSDSDGNIVSYLWDFGNGQTSTEAAPTWSYTKAGSYSVTLTVTDDKGDSDTHQQTIKVDTPN
The term stoichiometry N denotes the number of molecules, sites or subunits per partner or assembly. Consider B1, for which the “stoichiometry N” value turned out to be 2.
